Data as given in the supplement of paper PMC10567573.

B1: FBXO3 (parent)
chain: FIDTYSDVGRYIDHYAAIKKAWDD

Variants of: B1
Assay: protein stability index of a GFP-peptide fusion (GPS, HEK-293T) (PSI 1-6); higher = more stable
Conditions: c terminus: a fixed tail appended
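Note: lentivirally expressed fusions sorted by FACS into six bins by GFP to DsRed ratio, PSI derived from sequencing read proportions per bin multiplied by bin number.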

Protein stability index: each site, then its substitutions
T4: Y 1.82, I 1.94, P 1.86, V 1.91, N 2.02, S 1.89, C 1.55, A 2.41, W 1.37, F 2.28, L 1.89, H 1.88, Q 1.59, D 2.04, E 2.67, K 1.83, R 2.12, M 1.89, G 3.57
H14: I 1.71, V 2.27, E 1.84, C 2.31, M 1.75, R 2.38, S 2.49, K 1.87, W 1.87, G 2.11, F 2.19, T 1.71, P 2.38, Y 1.82, L 1.66, A 2.01, N 1.58, D 2.7, Q 1.63
I12: T 1.93, Q 2.3, R 2.27, M 1.72, Y 1.98, N 1.78, G 2.19, W 1.41, P 2.05, C 2.21, E 1.99, V 2, S 1.32, F 2.09, K 1.76, A 2.21, D 1.82, L 1.97, H 1.91
A16: Q 1.81, D 1.6, K 2.04, C 2.08, R 1.69, V 2.6, Y 2.71, G 2.44, H 2.12, L 2.01, P 2.07, M 1.25, W 1.84, I 1.71, E 1.89, F 1.69, N 1.12, T 1.42, S 1.93
D13: Y 2.58, T 1.5, N 2.34, M 2.07, E 1.32, L 2.24, W 2.51, S 1.84, I 2.88, P 1.83, Q 2.7, K 2.1, G 2.6, H 2.06, A 1.98, C 1.77, R 1.3, V 2.2
D3: Q 1.82, P 2.01, R 1.91, S 2.06, T 1.62, W 1.92, Y 2.46, V 2.63
V8: L 1.92, G 2.07, S 1.72, T 1.65, M 2.03, E 2.32, W 1.62, Q 1.79, C 1.9, P 2.72, I 2.62, D 3.07, Y 1.81, N 2.2, R 1.59, A 1.79, F 1.79, K 2.02, H 1.82
S6: H 2.06, A 1.97, Y 1.54, G 1.94, T 1.65, C 2.12, I 2.14, M 1.77, F 1.6, R 3.1, E 1.62, D 1.69, K 1.65, P 2.03, N 1.83, L 2.17, Q 1.89, W 3.09, V 2.35
Y5: G 2.21, F 2.19, E 2.8, P 3.12, H 2.13, L 1.96, Q 2.2, V 2.47, D 2.9, S 2.5, N 2.21, T 2.23, C 2.84, M 2.1, A 2.25, K 2.44, R 2.45, W 2.27, I 2.05
G9: H 1.9, Y 2, W 1.83, I 1.75, V 1.77, Q 2.03, R 1.7, M 3.14, F 1.9, L 2.22, C 1.65, N 2.05, A 1.62, S 1.91, T 1.83, D 1.57, K 1.85, P 1.85, E 2.15
Y15: K 1.93, F 2.14, L 1.53, H 2.32, S 1.48, I 2.15, E 1.94, G 1.87, P 1.57, T 1.82, D 2.08, V 1.99, A 1.93, N 1.97, C 2.24, W 2.08, Q 2.96, M 1.55, R 2.61
K19: D 2.46, L 1.92, I 2.39, V 1.98, S 1.02, H 2.68, T 2.38, F 1.84, R 1.16, M 3.18, N 1.88, P 1.74, Y 1.64, W 2.34, A 1.37, E 1.34, G 1.91, Q 2.07, C 1.55
A17: S 2.38, H 2.59, R 1.98, L 1.83, K 1.92, E 1.72, G 1.84, P 2.17, N 1.63, Y 2.6, W 2, I 1.6, C 1.92, Q 1.62, M 1.24, V 2.18, F 3.36, D 2.23, T 1.68
D7: Q 1.53, H 1.63, G 2.33, M 2.64, W 2.67, L 1.93, C 1.86, K 2.19, R 2.14, N 1.77, S 2.32, T 1.68, E 1.48, A 1.21, P 2.16, V 2.43, F 2.79, Y 2.01, I 1.75
A21: C 1.82, D 3.43, E 1.88, F 1.96
I18: F 2.12, L 2.11, V 2.16, P 1.96, M 2.16, C 1.94, N 1.46, G 2.38, W 1.74, Q 1.54, D 1.7, A 2.03, Y 1.31, K 2.41, H 2.39, T 2.24, R 1.7, S 2.13, E 1.97
R10: L 1.85, T 1.83, P 1.78, G 1.92, I 1.48, A 1.6, S 2.1, M 1.75, Y 1.75, F 2.23, V 2.86, D 2.32, K 1.82, H 1.56, W 1.46, C 1.9, E 2.56, Q 2.58, N 1.88
Y11: I 2, Q 2.06, P 2.24, F 1.89, K 2.06, D 1.78, T 1.59, W 2.39, G 1.66, H 1.78, A 1.82, R 2.37, N 2.25, E 1.38, C 1.66, V 1.93, L 1.42, S 2.2, M 1.85
K20: F 2.08, C 2.19, A 2.16, E 2.29, Q 1.68, N 2.76, S 1.54, L 1.54, M 2.49, G 1.81, T 1.61, H 1.7, R 1.67, D 1.74, W 2.86, V 1.44, I 2.59, Y 2.08, P 2.15
